From patent publication US20220162261A1 (published 2022)
Bridge positions count the residues as written; N and C are the ends. Square brackets hold non-standard residues; d marks the D form. Ends that are not written are not given here. Phe(3,4-Cl2) = N[C@@H](Cc1ccc(Cl)c(Cl)c1)C(=O)O; Phe(4-CF3) = N[C@@H](Cc1ccc(C(F)(F)F)cc1)C(=O)O; Phe(4-tBu) = CC(C)(C)c1ccc(C[C@H](N)C(=O)O)cc1; Phe(2,4-Cl2) = N[C@@H](Cc1ccc(Cl)cc1Cl)C(=O)O; NMeR = CN[C@@H](CCCNC(=N)N)C(=O)O; hPhe = N[C@@H](CCc1ccccc1)C(=O)O; Tic = O=C(O)[C@@H]1Cc2ccccc2CN1; β3hE = N[C@@H](CCC(=O)O)CC(=O)O; Pen = CC(C)(S)[C@H](N)C(=O)O; βAla = NCCC(=O)O

B1: SEQ ID NO: 89 (peptide)
peptide: Ac-[Pen][NMeR]SDTLC[Tic][dE][dK]-NH2
modifications: disulfide 1-7
SMILES: CC(=O)N[C@@H]1C(=O)N(C)[C@@H](CCCNC(=N)N)C(=O)N[C@@H](CO)C(=O)N[C@@H](CC(=O)O)C(=O)N[C@@H]([C@@H](C)O)C(=O)N[C@@H](CC(C)C)C(=O)N[C@H](C(=O)N2Cc3ccccc3C[C@H]2C(=O)N[C@H](CCC(=O)O)C(=O)N[C@H](CCCCN)C(N)=O)CSSC1(C)C
B2: SEQ ID NO: 17 (peptide)
peptide: Ac-[Pen][NMeR]SDTL[Pen][Phe(3,4-Cl2)]E[dK]-NH2
modifications: disulfide 1-7
SMILES: CC(=O)N[C@@H]1C(=O)N(C)[C@@H](CCCNC(=N)N)C(=O)N[C@@H](CO)C(=O)N[C@@H](CC(=O)O)C(=O)N[C@@H]([C@@H](C)O)C(=O)N[C@@H](CC(C)C)C(=O)N[C@H](C(=O)N[C@@H](Cc2ccc(Cl)c(Cl)c2)C(=O)N[C@@H](CCC(=O)O)C(=O)N[C@H](CCCCN)C(N)=O)C(C)(C)SSC1(C)C
B3: SEQ ID NO: 183 (peptide)
peptide: Ac-[Pen][NMeR]SDTL[Pen][Phe(4-tBu)][β3hE][dK]-NH2
modifications: disulfide 1-7; not fully specified (residue 10); printed as (Ac Pen N-Me-R S D T L Pen F(4-Bu) b-H-E k NH2)2 IDA Alexa-647, disulfide Pen-Pen; also: homodimer: two subunits joined by IDA linker, Alexa-647 label on the linker
notes: F(4-Bu) as printed
B4: SEQ ID NO: 53 (peptide)
peptide: H-[βAla][Pen][NMeR]SDTL[Pen]W[dE]-NH2
modifications: disulfide 2-8
SMILES: CC(C)C[C@@H]1NC(=O)[C@H]([C@@H](C)O)NC(=O)[C@H](CC(=O)O)NC(=O)[C@H](CO)NC(=O)[C@H](CCCNC(=N)N)N(C)C(=O)[C@@H](NC(=O)CCN)C(C)(C)SSC(C)(C)[C@@H](C(=O)N[C@@H](Cc2c[nH]c3ccccc23)C(=O)N[C@H](CCC(=O)O)C(N)=O)NC1=O
B5: SEQ ID NO: 19 (peptide)
peptide: Ac-[Pen][NMeR]SDTL[Pen][hPhe]E[dK]-NH2
modifications: disulfide 1-7
SMILES: CC(=O)N[C@@H]1C(=O)N(C)[C@@H](CCCNC(=N)N)C(=O)N[C@@H](CO)C(=O)N[C@@H](CC(=O)O)C(=O)N[C@@H]([C@@H](C)O)C(=O)N[C@@H](CC(C)C)C(=O)N[C@H](C(=O)N[C@@H](CCc2ccccc2)C(=O)N[C@@H](CCC(=O)O)C(=O)N[C@H](CCCCN)C(N)=O)C(C)(C)SSC1(C)C
B6: SEQ ID NO: 40 (peptide)
peptide: Ac-[Pen][NMeR]SDTL[Pen][hPhe][dE][dK]-NH2
modifications: disulfide 1-7; not fully specified (residue 10); printed as (Ac Pen N-Me-R S D T L Pen HPhe e k NH2)2 DIG, disulfide Pen-Pen; also: dimer, two subunits joined by DIG linker
B7: SEQ ID NO: 49 (peptide)
peptide: Ac-[Pen][NMeR]SDTL[Pen]WEP[dK]-NH2
modifications: disulfide 1-7
SMILES: CC(=O)N[C@@H]1C(=O)N(C)[C@@H](CCCNC(=N)N)C(=O)N[C@@H](CO)C(=O)N[C@@H](CC(=O)O)C(=O)N[C@@H]([C@@H](C)O)C(=O)N[C@@H](CC(C)C)C(=O)N[C@H](C(=O)N[C@@H](Cc2c[nH]c3ccccc23)C(=O)N[C@@H](CCC(=O)O)C(=O)N2CCC[C@H]2C(=O)N[C@H](CCCCN)C(N)=O)C(C)(C)SSC1(C)C
B8: SEQ ID NO: 131 (peptide)
peptide: Ac-[Pen][NMeR]SDTL[Pen][Phe(4-tBu)]E[dK]-NH2
modifications: disulfide 1-7; not fully specified (residue 10); printed as (Ac Pen N-Me-R S D T L Pen F(4tBu) E k NH2)2 DIG, disulfide Pen-Pen; also: homodimer, two subunits joined by DIG linker
B9: SEQ ID NO: 16 (peptide)
peptide: Ac-[Pen][NMeR]SDTL[Pen][Phe(2,4-Cl2)]E[dK]-NH2
modifications: disulfide 1-7
SMILES: CC(=O)N[C@@H]1C(=O)N(C)[C@@H](CCCNC(=N)N)C(=O)N[C@@H](CO)C(=O)N[C@@H](CC(=O)O)C(=O)N[C@@H]([C@@H](C)O)C(=O)N[C@@H](CC(C)C)C(=O)N[C@H](C(=O)N[C@@H](Cc2ccc(Cl)cc2Cl)C(=O)N[C@@H](CCC(=O)O)C(=O)N[C@H](CCCCN)C(N)=O)C(C)(C)SSC1(C)C
B10: SEQ ID NO: 14 (peptide)
peptide: Ac-[Pen][NMeR]SDTL[Pen][hPhe][dE][dK]-NH2
modifications: disulfide 1-7
SMILES: CC(=O)N[C@@H]1C(=O)N(C)[C@@H](CCCNC(=N)N)C(=O)N[C@@H](CO)C(=O)N[C@@H](CC(=O)O)C(=O)N[C@@H]([C@@H](C)O)C(=O)N[C@@H](CC(C)C)C(=O)N[C@H](C(=O)N[C@@H](CCc2ccccc2)C(=O)N[C@H](CCC(=O)O)C(=O)N[C@H](CCCCN)C(N)=O)C(C)(C)SSC1(C)C
B11: SEQ ID NO: 48 (peptide)
peptide: Ac-[Pen][NMeR][dD]DTL[Pen]WE[dK]-NH2
modifications: disulfide 1-7
SMILES: CC(=O)N[C@@H]1C(=O)N(C)[C@@H](CCCNC(=N)N)C(=O)N[C@H](CC(=O)O)C(=O)N[C@@H](CC(=O)O)C(=O)N[C@@H]([C@@H](C)O)C(=O)N[C@@H](CC(C)C)C(=O)N[C@H](C(=O)N[C@@H](Cc2c[nH]c3ccccc23)C(=O)N[C@@H](CCC(=O)O)C(=O)N[C@H](CCCCN)C(N)=O)C(C)(C)SSC1(C)C
B12: SEQ ID NO: 46 (peptide)
peptide: Ac-[Pen][NMeR]SDDL[Pen]WE[dK]-NH2
modifications: disulfide 1-7
SMILES: CC(=O)N[C@@H]1C(=O)N(C)[C@@H](CCCNC(=N)N)C(=O)N[C@@H](CO)C(=O)N[C@@H](CC(=O)O)C(=O)N[C@@H](CC(=O)O)C(=O)N[C@@H](CC(C)C)C(=O)N[C@H](C(=O)N[C@@H](Cc2c[nH]c3ccccc23)C(=O)N[C@@H](CCC(=O)O)C(=O)N[C@H](CCCCN)C(N)=O)C(C)(C)SSC1(C)C
B13: SEQ ID NO: 182 (peptide)
peptide: Ac-[Pen][NMeR]SDTL[Pen][Phe(4-tBu)][β3hE][dK]-NH2
modifications: disulfide 1-7; not fully specified (residue 10); printed as (Ac Pen N-Me-R S D T L Pen F(4-tBu) b-H-E k NH2)2 IDA Alexa-488, disulfide Pen-Pen; also: homodimer: two subunits joined by IDA linker, Alexa-488 label on the linker
B14: SEQ ID NO: 21 (peptide)
peptide: C[NMeR]SDTL[Pen]W-NH2
modifications: disulfide 1-7; not fully specified (N-terminus); printed as PEG25 NH2 C N-Me-R S D T L Pen W NH2, disulfide C-Pen; also: N-terminal PEG25 linker, number of subunits not shown
notes: N-terminal linker printed without dimer brackets
B15: SEQ ID NO: 37 (peptide)
peptide: Ac-C[NMeR]SDTL[Pen]W[dK]-NH2
modifications: disulfide 1-7; not fully specified (residue 9); printed as (Ac C N-Me-R S D T L Pen W k NH2)2 PEG25, disulfide C-Pen; also: dimer, two subunits joined by PEG25 linker
B16: SEQ ID NO: 36 (peptide)
peptide: Ac-C[NMeR]SDTL[Pen]W[dK]-NH2
modifications: disulfide 1-7; not fully specified (residue 9); printed as (Ac C N-Me-R S D T L Pen W k NH2)2 PEG13, disulfide C-Pen; also: dimer, two subunits joined by PEG13 linker
B17: SEQ ID NO: 45 (peptide)
peptide: Ac-[Pen][NMeR]SDTL[Pen][hPhe]E[dK]-NH2
modifications: disulfide 1-7; not fully specified (residue 10); printed as (Ac Pen N-Me-R S D T L Pen HPhe E k NH2)2 DIG, disulfide Pen-Pen; also: dimer, two subunits joined by DIG linker
B18: SEQ ID NO: 3 (peptide)
peptide: Ac-[Pen][NMeR]SDTL[Pen][Phe(4-CF3)][dE][dK]-NH2
modifications: disulfide 1-7; not fully specified (residue 10); printed as (Ac Pen N-Me-R S D T L Pen F(4-CF3) e k NH2)2 DIG, disulfide Pen-Pen; also: dimer, two subunits joined by DIG linker
B19: SEQ ID NO: 189 (peptide)
peptide: Ac-[Pen][NMeR]SQIQ[Pen][Phe(4-tBu)][β3hE][dK]-NH2
modifications: disulfide 1-7; also: homodimer via DIG linker on D-Lys10 side chains
B20: SEQ ID NO: 192 (peptide)
peptide: Ac-[Pen][NMeR]SQIQ[Pen][Phe(4-tBu)][β3hE][dK]-NH2
modifications: disulfide 1-7; also: homodimer via IDA linker on D-Lys10 side chains, Alexa-647 label
B21: SEQ ID NO: 190 (peptide)
peptide: Ac-[Pen][NMeR]SQIQ[Pen][Phe(4-tBu)][β3hE][dK]-NH2
modifications: disulfide 1-7; also: homodimer via IDA linker on D-Lys10 side chains

What follows are binders tested against T1, rh integrin α4β7 (R&D Systems #5397-A30) (human, UniProt P13612 34-970; P26010 20-723) (assay: competition ELISA vs MAdCAM-1).
T1 construct: bought; coated on a nickel coated plate; also called immobilized α4β7; immobilized α4β7 integrin protein

B1 and B2 cannot be ordered by IC50: over 25 nM for the first, over 10 nM for the second.

B3 and B4 cannot be ordered by IC50: at most 10 nM for the first, over 10 nM for the second.

B5 and B6 cannot be ordered by IC50: over 10 nM for the first, at most 10 nM for the second.

B7 and B8 cannot be ordered by IC50: over 10 nM for the first, at most 10 nM for the second.

B9 and B10 cannot be ordered by IC50: over 10 nM for the first, over 25 nM for the second.

B11 and B12 cannot be ordered by IC50: over 1000 nM for the first, over 1000 nM for the second.

With B13 the IC50 was at most 10 nM.

These binders were tested against T2, human α4β7 integrin on cells (human, UniProt P13612 34-1032; P26010 20-798) (assay: RPMI8866 cell adhesion to MAdCAM-1).
T2 construct: whole, on cells; also called α4β7 cell (Hu); RPMI8866 cells

B14 and B15 cannot be ordered by IC50: over 50 nM for the first, over 100 nM for the second.

B16 and B17 cannot be ordered by IC50: over 50 nM for the first, over 25 nM for the second.

B18 and B19 cannot be ordered by IC50: over 25 nM for the first, over 10000 nM for the second.

B20 and B21 cannot be ordered by IC50: over 10000 nM for the first, over 100000 nM for the second.
